Data taken from article PMC4317013 (The Journal of Biological Chemistry, 2014).

Columns and labels:
testisin [1] = target: T1, testisin (Mus musculus, UniProt Q9JHJ7); experiment: Cleavage by and complex formation with testisin in solution (SDS-PAGE, Western blotting, Edman degradation); format: biochemical; details: for N-terminal testisin cleavage site: Edman degradation of testisin-cleaved protein, Fig. 1D
T1 construct: purchased R&D Systems
Method: Activation of protestisin and testisin (R&D Systems, Minneapolis, MN) activity assays were performed according to the instructions of the supplier. Inhibition of testisin by PCI was tested on 96-well F16 Black MaxiSorp plates (Nunc, Roskilde, Denmark). 20 nM testisin was incubated with 200 or 1000 nM (final concentration) rhPCI or rmPCI in the absence or presence of 5 units/ml heparin in 100 μl of testisin buffer (50 mM Tris, 150 mM NaCl, 10 mM CaCl2, pH 7.5). After a 30-min incubation at 37 °C, 100 μl of 0.2 mM fluorogenic substrate I-1295 (Bachem, Bubendorf, Switzerland) dissolved in testisin buffer was added to each well. Plates were read every 15 s at an excitation wavelength of 380 nm and an emission wavelength of 460 nm using a Synergy H4 microplate reader (BioTek, Seattle, WA). The 5-min time point was used to calculate the relative activity. The amidolytic activity of testisin in the absence of PCI was assigned to 1, and for each reaction, the remaining testisin activity was calculated. To detect the possible complex formation between PCI and testisin, different concentrations (7.5–960 nM) of rhPCI or rmPCI, respectively, were incubated with 30 nM testisin for varying times (0–40 min) at 37 °C. The reactions were stopped by adding an equal volume of 2× Laemmli buffer containing 5% 2-mercaptoethanol ([40]). Samples were heated at 99 °C for 5 min followed by sodium dodecyl sulfate-polyacrylamide electrophoresis (SDS-PAGE) and Western blotting. To determine the testisin cleavage sites in human and mouse PCI, WT PCI or PCI mutants (rhPCI, hPCI-R11G, hPCI-R354G, rmPCI, mPCI-A18G, or mPCI-R352G, respectively; 300 nM each) were incubated with 30 nM testisin for 1 h at 37 °C. […]
SDS-PAGE was performed according to the method of Laemmli ([40]) using 10% acrylamide gels. […] The signal was detected using SuperSignal West Femto or SuperSignal West Pico chemiluminescent substrate (Thermo Fisher Scientific, Rockford, IL) with a FluorChem HD2 imaging system (ProteinSimple, Santa Clara, CA). […]

Jurkat T cells [2] = test system: Jurkat T cells
Method: For the internalization experiment, cells were seeded at 1 × 10^6 cells/ml with 8 ml of full medium into 75-cm^2 flasks and treated with respective 200 nM proteins for 2 h or 5 μM peptides for 1 h.
Human A+-helix peptide ([…]; corresponding to the cleaved N-terminal peptide of hPCI), mouse A+-helix peptide ([…]; corresponding to the cleaved N-terminal peptide of mPCI), and TAT peptide ([…]) ([42]) were synthesized and labeled with FITC (GenScript, Piscataway, NJ). […] Fluorescence-activated cell sorting (FACS) analysis was performed with a FACSCalibur flow cytometer (BD Biosciences). Further data analysis was done with Flowing Software ([43]). For confocal microscopy, the fixed cells were suspended with Vectashield mounting medium containing […] DAPI (Vector Laboratories, Burlingame, CA) and transferred onto slides. Confocal images were taken by a Zeiss LSM-510 Meta confocal microscope system (Zeiss, Jena, Germany). Zeiss LSM Image Browser software was applied for further analysis of images.

testisin [3] = experiment: 30 nM testisin in testisin buffer (50 mM Tris, 150 mM NaCl, 10 mM CaCl2, pH 7.5); details: 37 °C, up to 120 min
Jurkat T cells [4] = experiment: Internalization of PCI forms by Jurkat T cells (cell lysis, subcellular fractionation, Western blotting); format: cell-based, human; details: 200 nM protein, 2 h, 37 °C, Western blotting with anti-mPCI IgG; for internalization by Jurkat T cells (whole cell lysate and subcellular fractions): full medium, Fig. 3
Method: SDS-PAGE was performed according to the method of Laemmli ([40]) using 10% acrylamide gels. Following electrophoresis, the proteins were transferred onto PVDF membranes. The membranes were blocked with blotting buffer (5% skim milk powder and 0.05% Tween 20 in PBS, pH 7.4) for 1 h at room temperature. Rabbit anti-mPCI IgG (diluted 1:1000; homemade), rabbit anti-hPCI IgG (diluted 1:1000; homemade), monoclonal mouse anti-penta-His IgG (diluted 1:500; Qiagen, Hilden, Germany), rabbit anti-testisin IgG (diluted 1:500; Abgent, San Diego, CA), mouse monoclonal anti-A1AT(diluted 1:2000; Fisher Scientific GmbH), rabbit anti-actin IgG (diluted 1:2000; Sigma-Aldrich), monoclonal mouse anti-lamin B2 IgG (diluted 1:2000; Abcam, Cambridge, UK), and monoclonal mouse anti-Hsp 90 IgG (diluted 1:2000; Exbio, Prague, Czech) were used, respectively, in blotting buffer. The respective secondary antibodies were horseradish peroxidase-conjugated donkey anti-rabbit IgG (diluted 1:5000; GE Healthcare Handels GmbH) and horseradish peroxidase-conjugated sheep anti-mouse IgG (diluted 1:5000; GE Healthcare Handels GmbH). The signal was detected using SuperSignal West Femto or SuperSignal West Pico chemiluminescent substrate (Thermo Fisher Scientific, Rockford, IL) with a FluorChem HD2 imaging system (ProteinSimple, Santa Clara, CA).
Jurkat T cells were incubated in full medium with 200 nM rmPCI, testisin-cleaved rmPCI, or ΔR1-A18 mPCI, respectively, at 37 °C for 2 h. 1 × 10^7 cells were harvested and washed three times with PBS. To prepare whole cell lysates, cell pellets were resuspended and incubated in CelLytic M cell lysis buffer at room temperature for 10 min and applied to electrophoresis. Subcellular fractions were prepared as described previously ([41]) with some modifications. In brief, cell pellets were resuspended in 125 μl of buffer A (10 mM Hepes, pH 7.9, 10 mM KCl, 1.5 mM MgCl2, 0.34 M sucrose, 10% glycerol, 1 mM DTT, 0.1% Triton X-100) containing 10 μl of protease inhibitor mixture P8340 (Sigma-Aldrich) and incubated for 8 min. […]

Urokinase = Urokinase (Homo sapiens, UniProt P00749); experiment: Interaction of PCI with other proteases: urokinase; format: biochemical; details: 300 nM rmPCI, 30 nM protease, 37 °C, Fig. 1F
Method: (§1) Urokinase, aPC, thrombin, or enteropeptidase (30 nM each) was incubated with 300 nM rmPCI, respectively, for different periods (10 or 120 min) at 37 °C. The reactions were stopped by adding an equal volume of 2× Laemmli buffer containing 5% 2-mercaptoethanol ([40]). Samples were heated at 99 °C for 5 min followed by SDS-PAGE and Western blotting.
(§2) SDS-PAGE was performed according to the method of Laemmli ([40]) using 10% acrylamide gels. Following electrophoresis, the proteins were transferred onto PVDF membranes. The membranes were blocked with blotting buffer (5% skim milk powder and 0.05% Tween 20 in PBS, pH 7.4) for 1 h at room temperature. […] The signal was detected using SuperSignal West Femto or SuperSignal West Pico chemiluminescent substrate (Thermo Fisher Scientific, Rockford, IL) with a FluorChem HD2 imaging system (ProteinSimple, Santa Clara, CA).

aPC = aPC (Homo sapiens, UniProt P04070); experiment: Interaction of PCI with other proteases: aPC; format: biochemical; details: 300 nM rmPCI, 30 nM protease, 37 °C, Fig. 1F
Method: as §1, §2

enteropeptidase = enteropeptidase (Homo sapiens, UniProt P98073); experiment: Interaction of PCI with other proteases: enteropeptidase; format: biochemical; details: 300 nM rmPCI, 30 nM protease, 37 °C, Fig. 1F
Method: as §1, §2

T1 sequence (Q9JHJ7 55-298 limits assumed): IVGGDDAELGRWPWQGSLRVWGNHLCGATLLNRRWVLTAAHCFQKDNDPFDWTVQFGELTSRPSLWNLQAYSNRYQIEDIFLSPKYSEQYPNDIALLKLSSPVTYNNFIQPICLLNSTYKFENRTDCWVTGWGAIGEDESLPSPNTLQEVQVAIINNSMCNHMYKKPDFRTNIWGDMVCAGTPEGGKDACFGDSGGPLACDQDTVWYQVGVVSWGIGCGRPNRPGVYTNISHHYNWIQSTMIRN
Chain of aPC (P04070 212-461 limits assumed): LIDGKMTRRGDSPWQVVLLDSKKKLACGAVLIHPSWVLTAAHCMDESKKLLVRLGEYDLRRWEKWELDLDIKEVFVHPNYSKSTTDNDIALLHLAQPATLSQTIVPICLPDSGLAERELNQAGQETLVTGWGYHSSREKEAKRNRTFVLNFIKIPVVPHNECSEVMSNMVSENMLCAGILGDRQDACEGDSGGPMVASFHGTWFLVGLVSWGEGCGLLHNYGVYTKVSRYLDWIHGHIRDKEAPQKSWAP
Chain of aPC (P04070 43-197 partner limits assumed): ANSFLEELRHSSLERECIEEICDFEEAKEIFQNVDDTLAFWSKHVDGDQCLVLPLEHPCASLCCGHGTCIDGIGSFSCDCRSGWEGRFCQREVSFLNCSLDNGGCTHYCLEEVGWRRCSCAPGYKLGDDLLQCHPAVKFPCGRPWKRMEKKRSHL
Chain of enteropeptidase (P98073 whole entry, species assumed): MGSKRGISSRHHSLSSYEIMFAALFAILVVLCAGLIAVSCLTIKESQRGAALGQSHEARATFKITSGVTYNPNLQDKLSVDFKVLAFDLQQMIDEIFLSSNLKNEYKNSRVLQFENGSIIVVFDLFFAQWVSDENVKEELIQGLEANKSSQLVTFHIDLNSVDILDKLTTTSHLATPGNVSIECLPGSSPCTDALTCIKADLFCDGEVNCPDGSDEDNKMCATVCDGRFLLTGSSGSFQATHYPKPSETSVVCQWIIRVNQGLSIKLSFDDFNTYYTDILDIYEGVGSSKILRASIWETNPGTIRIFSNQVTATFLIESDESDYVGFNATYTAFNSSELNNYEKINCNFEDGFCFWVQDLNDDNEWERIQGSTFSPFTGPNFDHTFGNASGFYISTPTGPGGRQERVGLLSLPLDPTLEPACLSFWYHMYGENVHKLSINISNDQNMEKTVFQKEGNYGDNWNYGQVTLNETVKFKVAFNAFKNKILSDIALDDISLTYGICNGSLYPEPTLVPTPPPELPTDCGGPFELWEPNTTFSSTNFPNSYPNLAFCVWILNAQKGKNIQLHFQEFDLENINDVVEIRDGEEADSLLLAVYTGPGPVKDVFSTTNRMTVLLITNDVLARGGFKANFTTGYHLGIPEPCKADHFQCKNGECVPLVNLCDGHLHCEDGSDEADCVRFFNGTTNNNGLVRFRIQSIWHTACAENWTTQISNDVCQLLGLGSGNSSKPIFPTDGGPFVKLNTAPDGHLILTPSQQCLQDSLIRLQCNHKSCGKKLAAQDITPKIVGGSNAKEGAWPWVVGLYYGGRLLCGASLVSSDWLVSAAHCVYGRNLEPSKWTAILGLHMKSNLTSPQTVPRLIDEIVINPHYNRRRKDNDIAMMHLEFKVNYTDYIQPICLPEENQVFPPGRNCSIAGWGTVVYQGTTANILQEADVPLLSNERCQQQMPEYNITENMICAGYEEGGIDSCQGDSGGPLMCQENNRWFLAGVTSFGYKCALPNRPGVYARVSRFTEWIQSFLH

A1AT: serum-derived human α1-antitrypsin (Sigma-Aldrich), another serpin [reference compound]
cleavage by testisin (Western blotting) (testisin [1]; 300 nM protein, 30 nM testisin, 0–40 min, 37 °C, testisin buffer, Fig. 1A, B): Neither cleavage

HRHHPREMKKR [human A+-helix-FITC]
intracellular localization (confocal microscopy) (Jurkat T cells [2]): cytosolic and nuclear localization

RRHSHSKKKKAKESSVGA [mouse A+-helix-FITC]
intracellular localization (confocal microscopy) (Jurkat T cells [2]): cytosolic and nuclear localization

HRHHPREMKKRVEDLHVGATV...
cleaved bond (testisin [3]): Arg11-Val12

B1: rhPCI: recombinant human protein C inhibitor with N-terminal His tag (protein, UniProt P05154 26-406, looked up)
Plasma serine protease …: EMKKRVEDLHVGATVAPSSRRDFTFDLYRALASAAPSQSIFFSPVSISMSLAMLSLGAGSSTKMQILEGLGLNLQKSSEKELHRGFQQLLQELNQPRDGFQLSLGNALFTDLVVDLQDTFVSAMKTLYLADTFPTNFRDSAGAMKQINDYVAKQTKGKIVDLLKNLDSNAVVIMVNYIFFKAKWETSFNHKGTQEQDFYVTSETVVRVPMMSREDQYHYLLDRNLSCRVVGVPYQGNATALFILPSEGKMQQVENGLSEKTLRKWLKMFKKRQLELYLPKFSIEGSYQLEKVLPSLGISNVFTSHADLSGISNHSNIQVSEMVHKAVVEVDESGTRAAAATGTIFTFRSARLNSQRLVFNRPFLMFIVDNNILFLGKVNRP
modifications: N-terminal His tag
N-terminal testisin cleavage site (testisin [1]): between Arg^11 and Val^12

B2: rmPCI: recombinant mouse protein C inhibitor with N-terminal His tag (protein, UniProt P70458 25-405, looked up)
Plasma serine protease …: SKKKKAKESSVGAVGPPSSKDFAFRLYRALVSESPGQNVFFSPLSVSMSLGMLSLGAGLKTKTQILDGLGLSLQQGQEDKLHKGFQQLLQRFRQPSDGLQLSLGSALFKDPAVHIRDDFLSAMKTLYMSDTFSTNFGNPEIAKKQINNYVAKQTKGKIVDFIKDLDSTHVMIVVNYIFFKAKWQTAFSETNTHKMDFHVTPKRTTQVPMMNREDGYSYYLDQNISCTVVGIPYQGNAIALFILPSEGKMKQVEDGLDERTLRNWLKMFTKRRLDLYLPKFSIEATYKLENVLPKLGIQDVFTTHADLSGITDHTNIKLSEMVHKSMMEVEESGTTAAAITGAIFTFRSARPSSLKIEFTRPFLLTLMEDSHILFVGKVTRP
modifications: N-terminal His tag
internalization by Jurkat T cells (whole cell lysate and subcellular fractions) (Jurkat T cells [4]): taken up by Jurkat T cells and translocated to the nucleus
detection in subcellular fractions of Jurkat T cells (Jurkat T cells [4]; Fig. 4D): detected in the nuclear envelope fraction
N-terminal testisin cleavage site (testisin [1]): between Ala^18 and Val^19
cleavage by urokinase (Urokinase; 10 or 120 min, anti-mPCI IgG): appearance of a cleaved PCI form
N-terminal cleavage by urokinase (Urokinase; 120 min, anti-penta-His IgG): do not cleave the N terminus
cleavage by aPC (aPC; 10 or 120 min, anti-mPCI IgG): appearance of a cleaved PCI form
N-terminal cleavage by aPC (aPC; 120 min, anti-penta-His IgG, N-terminally cleaved form in aPC-PCI complex not completely ruled out): do not cleave the N terminus
cleavage by enteropeptidase (enteropeptidase; 10 or 120 min, anti-mPCI IgG): appearance of a cleaved PCI form
N-terminal cleavage by enteropeptidase (enteropeptidase; 120 min, anti-penta-His IgG): do not cleave the N terminus

B3: rmPCI preincubated with U937 cells: rmPCI preincubated with testisin-expressing U937 cells (protein, UniProt P70458 25-405, looked up)
Plasma serine protease …: SKKKKAKESSVGAVGPPSSKDFAFRLYRALVSESPGQNVFFSPLSVSMSLGMLSLGAGLKTKTQILDGLGLSLQQGQEDKLHKGFQQLLQRFRQPSDGLQLSLGSALFKDPAVHIRDDFLSAMKTLYMSDTFSTNFGNPEIAKKQINNYVAKQTKGKIVDFIKDLDSTHVMIVVNYIFFKAKWQTAFSETNTHKMDFHVTPKRTTQVPMMNREDGYSYYLDQNISCTVVGIPYQGNAIALFILPSEGKMKQVEDGLDERTLRNWLKMFTKRRLDLYLPKFSIEATYKLENVLPKLGIQDVFTTHADLSGITDHTNIKLSEMVHKSMMEVEESGTTAAAITGAIFTFRSARPSSLKIEFTRPFLLTLMEDSHILFVGKVTRP
modifications: preincubated with U937 cells
internalization by Jurkat T cells (whole cell lysate and subcellular fractions) (Jurkat T cells [4]): not detected inside Jurkat T cells
